Source: patent US20240218055A1 (US Dept. of Health and Human Services, published 2024)
Read-outs that look alike come from different tables or passages of the source.

T1: LASV Josiah GPC on pseudotyped rVSV (Lassa virus (Josiah strain), UniProt P08669 1-491)
T1 sequence: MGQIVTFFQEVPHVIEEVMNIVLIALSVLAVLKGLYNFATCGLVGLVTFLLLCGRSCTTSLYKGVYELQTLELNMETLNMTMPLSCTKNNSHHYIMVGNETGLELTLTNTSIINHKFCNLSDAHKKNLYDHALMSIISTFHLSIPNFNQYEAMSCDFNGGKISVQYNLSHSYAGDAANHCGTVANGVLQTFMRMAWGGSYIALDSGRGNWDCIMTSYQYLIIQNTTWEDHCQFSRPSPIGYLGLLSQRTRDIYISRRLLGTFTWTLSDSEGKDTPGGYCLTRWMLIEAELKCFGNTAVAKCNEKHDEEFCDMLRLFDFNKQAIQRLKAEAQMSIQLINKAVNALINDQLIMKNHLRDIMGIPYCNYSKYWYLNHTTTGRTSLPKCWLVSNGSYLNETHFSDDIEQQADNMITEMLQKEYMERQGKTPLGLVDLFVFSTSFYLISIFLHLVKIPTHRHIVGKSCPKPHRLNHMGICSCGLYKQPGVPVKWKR

T2: LASV GP1 subunit protein (Lassa virus, UniProt P08669 59-259)
T2 sequence: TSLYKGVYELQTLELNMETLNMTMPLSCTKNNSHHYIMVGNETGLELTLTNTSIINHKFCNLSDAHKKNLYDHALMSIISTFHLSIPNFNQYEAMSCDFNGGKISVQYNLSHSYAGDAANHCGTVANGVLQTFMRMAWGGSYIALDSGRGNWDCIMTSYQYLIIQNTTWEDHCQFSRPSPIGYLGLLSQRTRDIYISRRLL

B1: shark VNAR B8 (VNAR)
VNAR: ARVDQTPQTVTKETGESLTINCVLRDSNCALPSTYWYRKKSGSTNEENISKGGRYVETVNSGSKSFSLRINDLRPEDSGTYRCKVHGLPLDCIPARGLELNWREDVNGGGTAVTVN
B2: camel VHH D5 (VHH)
VHH: AWQLVESGGGSVQPGGSLTLTCQASKSTFSTSGMRWERQAQGKGVEFVADISSDSTRKWYSDSVKGRFTISRSNWWRTVTLQMNDLKPEDTARYYCKDLESHHLRGQGTQVTVSS
B3: bivalent single domain antibody D5 in IgG2a format (Fc fusion)
chain 1: AWQLVESGGGSVQPGGSLTLTCQASKSTFSTSGMRWERQAQGKGVEFVADISSDSTRKWYSDSVKGRFTISRSNWWRTVTLQMNDLKPEDTARYYCKDLESHHLRGQGTQVTVSSAAAEPKIPQPQPKPQPQPQPQPKPQPKPEPECTCPKCP
chain 2: B3 chain 1
B4: shark VNAR C3 (VNAR)
VNAR: ARVDQTPQTITAETGESLTINCVLRNSDCGLSDTYWFRMSPGSGSEERISIGGRYLETVNSVSKSFSLRINDLTVEDSGRYRCKTDVYRYVSGSGCLYSYFASGAGTVVTVN
B5: shark VNAR A10 (VNAR)
chain: ARVDQTPQTITKETGESLTITCILRDSQCALSPTYWYHKKSGSTKPERIYKGGRYVETVNSGSKSFSLRINDLTVEDSGTFFCKVSGWYAYSCRLEPDGYYDVYGGGTVVTVN
B6: shark VNAR B10 (VNAR)
VNAR: ARVDQTPQTITKETGESLTINCVLRDSNCPLSSTFWYRADAGSLNEENISKGGRYVETVNSGSKSFSLRINDLTTEDSGTYRCKVAGLPLDCIPARGLELNWREDVYGGGTAVTVN
B7: shark VNAR A1 (VNAR)
VNAR: ARVDQTPQTITKETGESLTINCVPPDSNCALADTYWYRKKSGSTNEESISKGGRYVPTVNSGSKSFILRINDLRVADSGTYRCKVSCYAAAYYGQQLERLYDVYGGGTAVTVN

Tests used:
bovine serum albumin = bovine serum albumin (bovine, UniProt P02769 25-607); test: ELISA, plate coated with BSA
[1] = target: T1, LASV Josiah GPC on pseudotyped rVSV; test: cell-based or functional assay
LASV GP1 subunit protein [2] = target: T2, LASV GP1 subunit protein; test: BLI
LASV GP1 subunit protein [3] = target: T2, LASV GP1 subunit protein; test: BLI; remark: listed apart in the source
[4] = target: LASV GP2 subunit protein (Lassa virus); test: BLI

Sequence of bovine serum albumin (P02769 25-607 limits assumed): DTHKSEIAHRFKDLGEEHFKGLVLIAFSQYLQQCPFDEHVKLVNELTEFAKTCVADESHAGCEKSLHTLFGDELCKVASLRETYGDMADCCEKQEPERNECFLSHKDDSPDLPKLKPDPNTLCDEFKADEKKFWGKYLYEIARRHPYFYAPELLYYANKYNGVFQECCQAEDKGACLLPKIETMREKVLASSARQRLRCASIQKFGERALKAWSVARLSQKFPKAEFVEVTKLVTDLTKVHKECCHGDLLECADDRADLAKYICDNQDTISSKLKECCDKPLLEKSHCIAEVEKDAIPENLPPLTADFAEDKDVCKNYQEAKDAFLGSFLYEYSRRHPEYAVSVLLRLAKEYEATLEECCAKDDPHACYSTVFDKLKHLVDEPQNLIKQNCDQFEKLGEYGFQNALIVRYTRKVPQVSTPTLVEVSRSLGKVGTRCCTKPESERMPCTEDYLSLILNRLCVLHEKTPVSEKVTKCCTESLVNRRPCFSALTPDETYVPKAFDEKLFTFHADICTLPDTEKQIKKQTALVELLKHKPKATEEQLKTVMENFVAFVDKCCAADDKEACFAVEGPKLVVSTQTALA

Binder	binding result (bovine serum albumin)	neutralization of LASV pseudotyped Josiah virus [1]	koff (LASV GP1 subunit protein [2])	kon (LASV GP1 subunit protein [2])	Kd (LASV GP1 subunit protein [3])	Kd (LASV GP1 subunit protein [2])	IC50, neutralization of Josiah pseudovirus [1]	Kd [4]	koff [4]	kon [4]	binding result (LASV GP1 subunit protein [3])
B1	no binding (tested: 1 ug/ml (single concentration))	< 50%	0.00236 s⁻¹	149000 M⁻¹ s⁻¹	15.9 nM						
B2		< 50%		23400 M⁻¹ s⁻¹	20.8 nM	20.8 nM					
B3							12 µg/mL				
B4	no binding (tested: 1 ug/ml (single concentration))	< 50%						10.6 nM	0.000265 s⁻¹	25100 M⁻¹ s⁻¹	no binding
B5	no binding (tested: 1 ug/ml (single concentration))	< 50%			22.7 nM						
B6	no binding (tested: 1 ug/ml (single concentration))	< 50%	0.00414 s⁻¹	52700 M⁻¹ s⁻¹	78.6 nM						
B7	no binding (tested: 1 ug/ml (single concentration))	< 50%			18.6 nM						
